Reference: PMC13326754

Experiments:
[1] = tested on: U2AF1alpha;U2AF2beta (Fritillaria borealis;Fritillaria borealis); assay: EMSA; conditions: 330 nM U2AF; never exceeded 5% bound; EMSA: 20 mM Hepes, 0.1 M NaCl, 5% glycerol, 0.5% Tween-20, pH 7.8, 50 ng/ul BSA, 0.5 mM TCEP, 0.5 mM EDTA; 1 h on ice; 6% PAGE 0.5x TBE at 4 C
[2] = tested on: U2AF1beta;U2AF2beta (Fritillaria borealis;Fritillaria borealis); assay: EMSA; conditions: 330 nM U2AF; never exceeded 5% bound; EMSA: 20 mM Hepes, 0.1 M NaCl, 5% glycerol, 0.5% Tween-20, pH 7.8, 50 ng/ul BSA, 0.5 mM TCEP, 0.5 mM EDTA; 1 h on ice; 6% PAGE 0.5x TBE at 4 C

Sequence | binding signal [1] | binding signal [2]
GGGCUGUCCUCUUUUUUUUUUCAGGCGUCU [ORN.PyU] | < 5 % bound | < 5 % bound
GGGUCGCUUCUCCCCCCCCCUAGGCGUCU [ORN.PyC] | < 5 % bound | < 5 % bound
